Laboratory results published in patent US20020081614, “Functional genomics using zinc finger proteins” (Sangamo BioSciences, Inc., published 2002).

Key:
[1] = test system: M6-111S ZFP-KRAB (pcK-M6-111S, printed pcK-M6-11S) (synthetic construct); test: cell_activity; settings: cotransfected luciferase reporter; about 40% repression of endogenous VEGF
[2] = test system: M6-111S ZFP-VP16 (pcV-M6-111S) (synthetic construct); test: cell_activity; settings: 293 cells; target printed ATGGGGGTC in Table 1 but ATGGGGGTG in p236 and p241
[3] = test system: M6-2009S ZFP-VP16 (pcV-M6-2009S, also written M6-2009A) (synthetic construct); test: cell_activity; settings: 293 cells; reporter pGLPVFH, table title endogenous VEGF; location -363
[4] = test system: M6-1878S ZFP-VP16 (pcV-M6-1878S) (synthetic construct); test: cell_activity; settings: 293 cells; reporter pGLPVFH, table title endogenous VEGF; location -536
[5] = test system: M6-120S ZFP-VP16 (pcV-M6-120S) (synthetic construct); test: cell_activity; settings: 293 cells; reporter pGLPVFH, table title endogenous VEGF; location -2243
VF471A-VP16 (pcV-VF471A) = target: T1, VF471A-VP16 (pcV-VF471A) (synthetic construct); test: cell_activity; luciferase reporter in 293 cells, vs pcV-RAN
T1 chain: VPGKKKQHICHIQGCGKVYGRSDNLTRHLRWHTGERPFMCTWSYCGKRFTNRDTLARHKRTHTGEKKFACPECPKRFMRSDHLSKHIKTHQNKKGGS
Experimental: All plasmid DNA was prepared using Qiagen plasmid purification kits. The human embryonic kidney 293 cells were seeded into each well of a 6-well plate with a density to reach approximately 70% confluence the next day. Cells were co-transfected with 50 ng effector DNA (ZFP-expression plasmid), 900 ng reporter DNA and 100 ng pCMV-LacZ DNA using either Lipofectamine (GIBCO-BRL, MD) or GenePORTER (Gene Therapy Systems Inc, CA) transfection reagent. The co-expressed β-galactosidase activity was used a control to normalize the luciferase activity. Cell lysates were harvested 40 to 48 hours after transfection. Luciferase assays were performed using the Dual-Light Luciferase and β-galactosidase Reporter Assay System (Tropix, MA).
When the VP16 domain was replaced with a peptide, which has no transcription regulation activity, this zinc finger protein (pcV-VF471A-cat) lost its activity of trans-activating the luciferase gene. […] Therefore, the DNA binding domain (VF471A ZFP) combined with the regulation domain (VP16) in this example were able to turn on the gene at an appropriate target sites.

ATGGGGGTG (double strand) [M6-111S site]
activity [1]: 80 % repression
activity (fold activation) [2]: 4.1

GAAGGGGGC (double strand) [M6-2009S site]
activity (fold activation) [3]: 4.5

GAGTGTGTG (double strand) [M6-1878S site]
activity (fold activation) [4]: 4.2

GGGGGTGCC (double strand) [M6-120S site]
activity (fold activation) [5]: 13.8

B1: reporter with three tandem M6-1892S sites (pGLP-VF471x3) (dsDNA)
DNA 1: GGGGTTGAG
DNA 2: CTCAACCCC
activity (VF471A-VP16 (pcV-VF471A)): 8 fold activation
